What was measured:
[1] = system: S6K1 phosphorylation (mTORC1 activity); experiment: Western blotting of phosphorylated S6K1 in knock-down HEK293 cells with exogenous phosphatidic acid; format: cell-based; conditions: 100 μM PA, amino acid stimulation
Protocol: Particularly, HEK293 cells were transducted with lentivirus expressing LRS shRNA (shLRS) or scrambled sequence shRNA (control). The cells were cultured in DMEM supplemented with 10% fetal bovine serum (FBS) in a 37° C., 5% CO2 incubator for 3 days. As for the LRS shRNA, shLRS-1 (TRCN0000290440) or shLRS-2 (TRCN0000290511) was used. As for the scrambled sequence shRNA, the sRNA previously described (Yoon, et al., J Cell Biol., 2011 195(3); 435-447) was used. Lentivirus packaging and transduction were performed according to the methods described in the following paper (Sun, et al., Proc Natl Acad Sci USA., 2008, 105(24); 8286-8291). […] The cell lysate was analyzed by Western blotting according to the conventional method. The intensity of the bands obtained by Western blotting was quantified by measuring the X ray film image density using Image J software.
Particularly, HEK293 cells were transduced with shLRS, shRagD lentivirus or lentivirus expressing scrambled sequence shRNA (control), and then stimulated with amino acids by the same manner as described in Example <1-1> in the presence or absence of 100 μM phosphatidic acid (PA), a product of PLD1. Lysates of the cells were analyzed by Western blotting according to the method conventionally performed.

[2] = system: S6K1 phosphorylation (mTORC1 activation); experiment: Amino acid mediated mTORC1 activation through S6K1 phosphorylation, Western blotting, HEK293 cells treated with SAR405; format: cell-based
Protocol: Particularly, HEK293 cells were transducted with lentivirus expressing LRS shRNA (shLRS) or scrambled sequence shRNA (control). The cells were cultured in DMEM supplemented with 10% fetal bovine serum (FBS) in a 37° C., 5% CO2 incubator for 3 days. As for the LRS shRNA, shLRS-1 (TRCN0000290440) or shLRS-2 (TRCN0000290511) was used. As for the scrambled sequence shRNA, the sRNA previously described (Yoon, et al., J Cell Biol., 2011 195(3); 435-447) was used. Lentivirus packaging and transduction were performed according to the methods described in the following paper (Sun, et al., Proc Natl Acad Sci USA., 2008, 105(24); 8286-8291). The simultaneous expression of Vps15 and Vps34 was necessary for the stability and activity of Vps34, so the cells were transfected with bicistronic Myc-Vps34/V5-Vps15 plasmid (Yan, et al., Biochem J., 2009, 417(3); 747-755), followed by culture in the absence of FBS for overnight. On the next day, the cells were cultured in DMEM without leucine or amino acid for 2 hours, followed by stimulating the cells with 0.8 mM leucine or amino acids at the same concentration as DMEM for 30 minutes. The cell lysate was analyzed by Western blotting according to the conventional method. The intensity of the bands obtained by Western blotting was quantified by measuring the X ray film image density using Image J software.
HEK293 cells were treated with SAR405 (APExBIO, US), a Vps34 specific inhibitor, and then amino acid mediated mTORC1 activation was investigated through S6K1 phosphorylation. […] Western blotting was performed by stimulating cells with amino acids by the same manner as described in Example <1-1> except that HEK293 cells were treated with SAR405 at the concentration of 3 μM and co-transfected with Myc-LRS and Myc-S6K1. At this time, the cells untreated with SAR405 were used as the control. All the quantification data was presented as mean±standard deviation of the values obtained from at least three independent experiments performed separately. Statistical significance was analyzed by student's t-test (*p≤0.05. **p≤0.01).

Vps34 = target: T1, Vps34 (Mus musculus, UniProt Q6PF93); experiment: In vitro Vps34 lipid kinase assay on Vps34 immune complex from MEF cells with added purified GST protein; format: biochemical; conditions: FIG. 7
T1 construct: endogenous in cells; host or cells: MEF cells
Protocol: To perform in vitro Vps34 lipid kinase assay, the Vps34 immunocomplex was washed with PBS containing 1% NP-40 three times, with PBS containing 100 mM Tris (pH 7.4) containing 500 mM LiCl three times, and with TNE buffer (10 mM Tris (pH 7.4), 100 mM NaCl and 1 mM EDTA) twice, then 2 mg/ml of […] and 10 μCi ^32P-γ-ATP (PerkinElmer) were added to TNE buffer. The reaction was terminated by adding 20 μl of 8 N HCl and lipid was extracted with 160 μl of CHCl3:MeOH (1:1). ^32P-PI(3)P was separated on a thin layer chromatography plate (EMD Chemicals Inc.) using CHCl3:MeOH:NH4OH:water (60:47:2:11.3) as a solvent, followed by measuring Vps34 activity by radiograph. The activity of Vps34 was quantified by standardizing the Vps34 amount included in the immune precipitate determined by quantification of Western blotting. To measure the amount of intracellular PI(3)P, ELISA-format assay was performed according to the manufacturer's protocol, leading to quantification of the amount of PI(3)P from nonlinear fitting of the PI(3)P standard. All quantificative data was presented as mean±standard deviation of the values obtained from at least three independent experiments performed separately. Statistical significance was analyzed by student's t-test ([…]. **p≤0.01).
Particularly, MEF cells were cultured in the absence of FBS for overnight. On the next day, the cells were cultured in leucine-free DMEM for 2 hours. Anti-Atg14L antibody was added in the cell lysate thereto, followed by immunoprecipitation to eliminate Atg14L from the cell lysate. Then, anti-Vps34 antibody was added thereto, followed by immunoprecipitation of Vps34. The Vps34 immune complex was placed in TNE buffer supplemented with 2 mg/ml of PI, 10 μCi ^32P-γ-ATP (PerkinElmer) and 3.75 μg of GST protein in the presence or absence of leucine for 20 minutes at 30° C. […] All the quantification data was presented as mean±standard deviation of the values obtained from at least three independent experiments performed separately. Statistical significance was analyzed by student's t-test (*p≤0.05. **p≤0.01).

tibialis anterior (TA) = experiment: Muscle regeneration after BaCl2 induced muscle injury in AAV-UNE-L injected tibialis anterior; format: in vivo, BL6 mice; conditions: expressed from AAV-UNE-L in TA, vs AAV-GFP contralateral
Protocol: Particularly, AAV-UNE-L was injected into the left tibialis anterior (TA) of 10-week-old BL6 mice and AAV-GFP was injected into the right tibialis anterior (TA) of 10-week-old BL6 mice, and after 7 weeks, BaCl2 (prepared in saline at the concentration of 1.2% wt/vol: 50 μl) was injected to induce muscle injury (Sun et al., 2011, J. Cell Biol. 192, 69-81). 7 days later, the mice were sacrificed and the tibialis anterior muscles were separated and fixed in 10% paraformaldehyde, followed by embedding in paraffin. The section was performed to the thickness of 10 μm, and the prepared sections were placed on non-coated slides, followed by staining with hematoxylin and eosin (H&E). The stained slides were observed through a 10× dry objective lens of a microscope (Olympus CKX3-Houn Microscope). The stained images were photographed with 24-bit image and the regenarating myofiber cross section area (CSA) was measured by image J. CSA was measured only in the myofibers showing the characteristics of regenerating myofiber with the nucleus in the center.

C2C12 cells = experiment: MHC/DAPI immunostaining of differentiated C2C12 cells (differentiation index, fusion index, myotube size); format: cell-based, mouse; conditions: given as NP-UNE-L, three days differentiation, FIG. 15
Protocol: Particularly, to investigate the role of the UNE-L domain of LRS, NP-UNE-L was constructed by binding the UNE-L domain of LRS to nanoparticles (NP) through the conventional method.
C2C12 cells, the mouse muscle cells, were maintained in DMEM supplemented with 4.5 g/l of glucose and 10% FBS in a 37° C., 7.5% CO2 incubator. To induce myogenesis, the cells were cultured on a plate coated with 0.2% gelatin until 100% confluence and the culture medium was replaced with the differentiation-inducing medium containing 2% horse serum. The culture medium was replaced every day for 3 days. During differentiation for three days, the differentiation-inducing medium treated group, the differentiation-inducing medium and NP-UNE-L treated group, and the differentiation-inducing medium and NP treated group were compared.
After the differentiation of C2C12 cells for three days, Western blotting was performed with the cell lysate according to the conventional method. To compare the differentiation level of C2C12 cells, C2C12 cells were fixed and immunostained with MHC, a myocyte differentiation marker, and 4′,6-diamidino-2-phenylindole (DAPI), a cell nucleus marker (Yoon et al. 2013 Molecular biology of the cell, 24(23) 3754-3763). […] The differentiation index was calculated as the percentage of nuclei in the myotubes stained with MHC and the fusion index was calculated as the percentage of nuclei in the myotubes with two or more nuclei stained with MHC. The myotube size was calculated as the number of nuclei in the myotube stained with MHC.

[3] = system: tibialis anterior (TA) muscles; experiment: Muscle regeneration after BaCl2 induced muscle injury, NP-UNE-L injected with BaCl2; format: in vivo, BL6 mice; conditions: given as NP-UNE-L with BaCl2 into TA, vs NP in contralateral TA, 7 days, FIG. 16
Protocol: Particularly, BaCl2 (prepared in saline at the concentration of 1.2% wt/vol: 50 μl) was injected into the tibialis anterior (TA) muscles of 10-week-old BL6 mice to induce muscle injury (Sun et al., 2011, J. Cell Biol. 192, 69-81). NP-UNE-L was injected with BaCl2 on the left side and NP was injected with BaCl2 on the right side. 7 days later, the mice were sacrificed and the tibialis anterior muscles were separated and placed in 2-methylbutane which was coldly prepared in liquid nitrogen, followed by embedding in TBS tissue freezing medium. Cryosection was performed at −20° C. to the thickness of 10 μm by using a cryostat (Microm HM550; Thermo Fisher Scientific). The prepared sections were placed on non-coated slides, followed by staining with hematoxylin and eosin (H&E). The stained slides were observed through a 10× dry objective lens of a microscope (DMI 4000B; Leica). The stained images were photographed with a 24-bit image camera (RETIGA EXi; Q Imaging) and the regenarating myofiber cross section area (CSA) was measured by image J. CSA was measured only in the myofibers showing the characteristics of regenerating myofiber with the nucleus in the center.

T1 sequence (Q6PF93 whole entry): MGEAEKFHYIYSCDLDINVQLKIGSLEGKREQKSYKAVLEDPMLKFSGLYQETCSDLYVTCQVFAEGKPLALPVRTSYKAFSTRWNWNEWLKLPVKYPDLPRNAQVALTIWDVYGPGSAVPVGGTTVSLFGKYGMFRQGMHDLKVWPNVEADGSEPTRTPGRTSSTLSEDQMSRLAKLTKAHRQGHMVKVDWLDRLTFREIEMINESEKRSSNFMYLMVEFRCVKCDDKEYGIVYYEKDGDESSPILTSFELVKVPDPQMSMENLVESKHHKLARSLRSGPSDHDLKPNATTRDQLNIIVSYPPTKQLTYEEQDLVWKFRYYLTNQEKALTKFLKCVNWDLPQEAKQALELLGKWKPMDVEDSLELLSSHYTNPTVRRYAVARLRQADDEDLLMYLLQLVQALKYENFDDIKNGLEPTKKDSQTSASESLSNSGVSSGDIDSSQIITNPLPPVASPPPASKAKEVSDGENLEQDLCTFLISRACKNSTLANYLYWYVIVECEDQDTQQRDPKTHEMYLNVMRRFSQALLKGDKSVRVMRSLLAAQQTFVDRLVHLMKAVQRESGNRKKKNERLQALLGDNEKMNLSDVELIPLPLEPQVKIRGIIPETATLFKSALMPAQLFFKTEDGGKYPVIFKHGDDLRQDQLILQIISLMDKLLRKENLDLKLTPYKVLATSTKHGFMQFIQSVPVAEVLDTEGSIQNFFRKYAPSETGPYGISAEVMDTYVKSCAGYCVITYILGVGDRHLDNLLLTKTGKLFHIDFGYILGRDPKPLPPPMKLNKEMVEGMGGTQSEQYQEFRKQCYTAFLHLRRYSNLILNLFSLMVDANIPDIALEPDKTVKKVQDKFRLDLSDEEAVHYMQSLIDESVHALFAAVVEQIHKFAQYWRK
T1 sequence (Q8VD65 whole entry partner): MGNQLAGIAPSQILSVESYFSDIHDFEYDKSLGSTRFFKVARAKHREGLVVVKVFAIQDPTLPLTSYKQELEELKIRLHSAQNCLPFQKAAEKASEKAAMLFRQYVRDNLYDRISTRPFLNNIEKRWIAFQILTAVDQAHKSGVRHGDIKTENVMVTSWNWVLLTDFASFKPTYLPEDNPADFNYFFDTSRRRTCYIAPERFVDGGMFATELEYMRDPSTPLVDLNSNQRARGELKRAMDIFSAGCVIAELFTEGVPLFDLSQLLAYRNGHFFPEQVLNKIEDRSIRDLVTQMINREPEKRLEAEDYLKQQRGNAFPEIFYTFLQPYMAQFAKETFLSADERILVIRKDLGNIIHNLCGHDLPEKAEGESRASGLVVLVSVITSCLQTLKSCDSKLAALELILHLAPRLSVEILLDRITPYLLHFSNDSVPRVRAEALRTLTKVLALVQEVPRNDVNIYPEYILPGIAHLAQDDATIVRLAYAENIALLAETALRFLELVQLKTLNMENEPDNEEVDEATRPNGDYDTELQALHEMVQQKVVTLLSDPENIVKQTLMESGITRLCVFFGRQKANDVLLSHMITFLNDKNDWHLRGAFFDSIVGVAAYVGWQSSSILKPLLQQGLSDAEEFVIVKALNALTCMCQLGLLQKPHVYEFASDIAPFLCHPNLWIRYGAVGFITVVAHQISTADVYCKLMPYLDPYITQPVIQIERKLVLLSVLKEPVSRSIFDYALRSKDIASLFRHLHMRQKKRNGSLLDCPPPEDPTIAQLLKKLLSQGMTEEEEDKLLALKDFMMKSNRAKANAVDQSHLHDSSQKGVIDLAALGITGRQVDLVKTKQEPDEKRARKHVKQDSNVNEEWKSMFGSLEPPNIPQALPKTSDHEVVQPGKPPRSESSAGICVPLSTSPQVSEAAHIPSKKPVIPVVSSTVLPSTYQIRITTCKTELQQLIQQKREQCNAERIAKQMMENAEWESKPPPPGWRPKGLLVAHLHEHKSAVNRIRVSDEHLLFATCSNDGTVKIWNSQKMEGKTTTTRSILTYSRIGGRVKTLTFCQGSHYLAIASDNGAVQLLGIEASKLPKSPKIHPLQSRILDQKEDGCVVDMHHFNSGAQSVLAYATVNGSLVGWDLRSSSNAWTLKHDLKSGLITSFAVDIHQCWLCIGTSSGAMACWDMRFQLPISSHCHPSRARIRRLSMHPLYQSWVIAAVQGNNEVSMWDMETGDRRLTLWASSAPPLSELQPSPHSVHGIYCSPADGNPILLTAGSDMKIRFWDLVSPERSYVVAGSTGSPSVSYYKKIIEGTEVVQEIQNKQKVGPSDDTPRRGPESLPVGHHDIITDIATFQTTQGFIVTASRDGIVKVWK

phosphatidic acid [PA]
amount of phosphorylated S6K1 ([1]; LRS knocked-down, FIG. 11): increased again
amount of S6K1 phosphorylated ([1]; both LRS and RagD knocked-down): partially increased

C[C@@H]1COCCN1c1cc(=O)n2c(n1)N(Cc1cncc(Cl)c1)[C@H](C(F)(F)F)CC2 [SAR405]
S6K1 phosphorylation increased by LRS overexpression ([2]; HEK293 cells co-transfected with Myc-LRS and Myc-S6K1, SAR405 3 μM, FIG. 3C): reduced
S6K1 phosphorylation induced by total amino acids ([2]; HEK293 cells, FIG. 3B): reduced
concentration at which S6K1 phosphorylation was completely inhibited ([2]; HEK293 cells, tested at 0.1, 0.3, 1, 3 and 10 μM, amino acid stimulation): 3 µM

LRS mutation (F50A/Y52A): leucine binding deficient mutant of LRS
activation of Vps34 (Vps34; regardless of the presence or absence of leucine stimulation): did not induce the activation of Vps34

GST-LRS protein: purified GST-LRS (leucyl-tRNA synthetase) protein expressed in E. coli BL21
activity of Vps34 compared to the GST control (Vps34; purified protein added to Vps34 immune complex): about 3 times
activity of Vps34 with leucine stimulation (Vps34; purified protein added to Vps34 immune complex, in the presence of leucine): further increased

B1: UNE-L domain of LRS: UNE-L domain of leucyl-tRNA synthetase C-terminus, polypeptide of the amino acid sequence SEQ. ID. NO: 1 (protein, listed as Homo sapiens)
chain: PGVSVSLVNPQPSNGHFSTKIEIRQGDNCDSIIRRLMKMNRGIKDLSKVKLMRFDDPLLGPRRVPVLGKEYTEKTPISEHAVFNVDLMSKKIHLTENGIRVDIGDTIIYLVH
CSA of the muscle fibers generated during muscle regeneration (tibialis anterior (TA); BaCl2 after 7 weeks, 7 days later, FIGS. 18A and 18B): increased
mean value of CSA (tibialis anterior (TA); FIG. 18C): increased significantly
differentiation index of C2C12 cells (C2C12 cells): increased
fusion index of C2C12 cells (C2C12 cells): increased
myotube size (C2C12 cells): increased
CSA of the muscle fibers generated during muscle regeneration [3]: increased

Source: patent publication US11389516B2, “Composition comprising UNE-L domain of leucyl-tRNA synthetase as effective ingredient for augmenting muscle” (GACHON UNIVERSITY OF INDUSTRY-ACADEMIC COOPERATION …, priority 2017, dated 2022)
